Source: the nanobody polyreactivity screen of Harvey et al. (2022)

Test: yeast display, Sf9 membrane polyspecificity reagent, FACS + sequencing; frameworks hold sequencing errors
Outline: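 Synthetic nanobody libraries on Saccharomyces cerevisiae BJ5465 were galactose-induced for 36–48 hours, stained 1 hour at 4 °C with 10% biotinylated, detergent-solubilized Sf9 membrane reagent and enriched on streptavidin microbeads. FACS then separated cells into low and high (top ~1%) gates by anti-HA (expression) and streptavidin (reagent binding) fluorescence. Genes were colony-PCR amplified, MiSeq 2 × 250 sequenced and CDR-length filtered. A clone's polyreactivity label is that of its gate of origin.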

Sequence	polyreactivity (PSR sort gate)
QVQLVESGGGLVQAGGSLRLSCAASGRIFDGYAMGWYRQAPGKERELVASISYDGGSTYYADSVQGRFTISRDNAKNTVYLQMNSLKPEDTAVYYCAAVYRRRSYTFYYWGQGTQVTVSS	high polyreactivity
QVQLVESGGGLVQAGGSLRLSCAASGRIFDGYAMGWYRQAPGKERELVATITRGGSTNYADSVKRPFTISRDNAKNTVYIQMNSLKPEDTAVYYCNADIRRHGGYAHEYWGEGTQVTVSS	low polyreactivity
QVQLVESGGGLVQAGGSLRLSCAASGRIFDGYAMGWYRQAPGKESELVATIDVSGGRTTYADSVKGRFTISRDNAKNTVYLQMNSLKPEDTAVYYCNVDYYWSSGGTDYDYWGQGTQVTVSS	low polyreactivity
QVQLVESGGGLVQAGGSLRLSCAASGRIFDGYDMGWYRQAPGKERELVAAITSVGSTNYADSVKGRFTISRDNAKNTVYLQMNSLKPEDTAVYYCAAVLYVFYDEYGYWEYFSQYDYWGQGTQVTVSS	low polyreactivity
QVQLVESGGGLVQAGGSLRLSCAASGRIFDHNAMGWYRPAPGKERELVAAIDWSGGSTYYADSVKGRFTISRDNAKNTVYLQMNSLKPEDTAVYYCNVYWHTFSWDDYGYWGQGTQVTVSS	low polyreactivity
QVQLVESGGGLVQAGGSLRLSCAASGRIFDHYAMGWYRQAPGKERELVAAINSGGTTNYADSVKGRFTISRDNAKNTVYLQMNSLKPEETAVYYCAARPRKGQYYFGGNYWGQGTQVTVSS	low polyreactivity
QVQLVESGGGLVQAGGSLRLSCAASGRIFDIYAMGWYRQAPGKERELVATITRSAGRTYYADSVKGRFTISRDNAKNTVYLQMNSLKPEDTAVYFCAASYWDTEPGYREYEYWGQGTQVTVSS	low polyreactivity
QVQLVESGGGLVQAGGSLRLSCAASGRIFDIYTMGWYRQAPGKERELVASITKRGGSTYYADSVKGRFTISRDNAKNTVYLQMNSLKPEDTAVYYCNAVYSWYRRYGLEGYWGQGTQVTVSS	high polyreactivity
QVQLVESGGGLVQAGGSLRLSCAASGRIFDKYTMGWYRQAPGKERELVAAISKSGSGTFYADSVKGRFTISRDNAKNTVYLQMNSLKPEDTAVYYCARVYTVGTGRSWRLDYCGQGTQVTVSS	high polyreactivity
QVQLVESGGGLVQAGGSLRLSCAASGRIFDLNAMGWYRQAPGKERELVAAITNTGSTNYADSVKGRFTISRDNAKNTVYLQMNSLKPEDTAVYYCARTYWLRYSGYRDDEYDYWGQGTQVTVSS	low polyreactivity
QVQLVESGGGLVQAGGSLRLSCAASGRIFDLNTMGWYRQAPGKERELVAAISSGGSTYYADSVKGRFTISRDNAKNTVYLQMNSLKPEDTAVYYCAADKIRGYRIRMYWGQGTQVTVSS	low polyreactivity
QVQLVESGGGLVQAGGSLRLSCAASGRIFDLNVMGWYRQAPGKERELVAAIRSGGRTNYADSVKGRFTISRDNAKNTVYLQMNSLKPEDTAVYYCNVRRGYWHPGYGWANYDYWGQGTQVTVSS	high polyreactivity
QVQLVESGGGLVQAGGSLRLSCAASGRIFDLYAMGWYRQAPGKEREFVAAISGRGGSTYYADSVKGRFTISRDNAKNTVYLQMNSLKPEDTAVYYCNAKRSLYGRYGYWGQGSQVTVSS	high polyreactivity
QVQLVESGGGLVQAGGSLRLSCAASGRIFDLYTMGWYRQATGKERELVAAIRWSDGSTYYADSVKGRFTISRDNAKNSVYLQMNSLKPVDTAVYYCAADTRTSYYNDDYDYWGQGTQVTVSS	low polyreactivity
QVQLVESGGGLVQAGGSLRLSCAASGRIFDPYAMGWYRQAPGKEREVVASISWSGGRTYYADSVKGRFTISRDNAKNTVYLQMNSLKPEDTAVYYCAARQWYRYKVRIDYWGQGTQVTVSS	high polyreactivity
QVQLVESGGGLVQAGGSLRLSCAASGRIFDPYTMGWYRQAPGKERELVAAISGRTGRTYYADSVKGRFTISRDNAKNTVYLQMNSLKPEDTAVYYCNAVRYVVLPGGPKFDYWGQGTQVTVSS	high polyreactivity
QVQLVESGGGLVQAGGSLRLSCAASGRIFDRYAMGWYRQAPGKERELVASITSSGGNTYYADSVKGRFTISRDNAKNTVYFQMNSLKPEDTAVYYCAKPQRVWQYGNYYYWGQGTQVTVSS	high polyreactivity
QVQLVESGGGLVQAGGSLRLSCAASGRIFDSYAMGSYRQAPGKERELVAVISNNDGTTYYADSVKGRFTISRDNEKNTVYLQMNSLKPEDTAVYYCAAEEPLFGYLWYVVTYAGIYDYWGQGSQVTVSS	low polyreactivity
QVQLVESGGGLVQAGGSLRLSCAASGRIFDSYTMGWYRQEPGKERELVAAISGGGITNYADSVKGRFTISRDNAKNTVYLQMNSLKPEDTAVYYCAARDRYYFGGMYYWGQGTQVTVSS	low polyreactivity
QVQLVESGGGLVQAGGSLRLSCAASGRIFDTNAMGWYRQAPGKEREFVAAISRSGGSTYYADSVKGRFTISRDNAKNTVYLQMNSLKPEDTAVYYCAARWYVLQPLGYDASRYGYWGQGTQVTVSS	high polyreactivity
QVQLVESGGGLVQAGGSLRLSCAASGRIFDTNFIGWYRLAPGKERELVAANSQSGGITYYADSVKGRFTISRDNAKKTVYLQMNSLKPEDTAVYYCAKDTVTVSFNEYDYWGQGTQVTVSS	low polyreactivity
QVQLVESGGGLVQAGGSLRLSCAASGRIFDTNVRGWSRQAPGKERELVAAISSGGSTYYADSVKGRFTISRDNAKTTVYLQMNSLKPEDTAVYYCAAESRTSRARRYYWGQGTQVTVSS	high polyreactivity

Sequence	polyreactivity (PSR sort gate)
QVQLVESGGGLVQAGGSLRLSCAASGRIFDTYAMGWYRQAPGKERELVAAITRRGGSTYYADSVKGRFTISRDNAKNTVYLQMNSLKPEDTAVYYCAKSLVNRHYDYWGQGTQVTVSS	low polyreactivity
QVQLVESGGGLVQAGGSLRLSCAASGRIFDTYVMGWYRQAPGKERELVAAISRSGGSTYYADSVKGRFTISRDNAKNTVYLQMNSLKPEDTAVYYCNKLASWWSAYYNPYEYWGQGTQVTVSS	high polyreactivity
QVQLVESGGGLVQAGGSLRLSCAASGRIFDVYAMGWYRQAPGKERELVAAITWSGTSTYYADSVKGRFTISRDNAKNTVYLQKNSLKPEDTAVYYCAAEVAYTDTEYFWYYYWGQGTQVTVSS	high polyreactivity
QVQLVESGGGLVQAGGSLRLSCAASGRIFDVYAMGWYRQAPGKERELVATITCSGGGTYYADSVKGRFTISRDNAKNSVYLQMNSLKPEDTAVYYCAADYYPTYAYYVSNVGYDYWGQGTQVTVSS	low polyreactivity
QVQLVESGGGLVQAGGSLRLSCAASGRIFDWNMGWYRQAPGKERELVAGITFSVDSTYYADSVKGRFTISRDNAKNTVYLQMNSLKPEDTAYWGQGTQVTVSS	low polyreactivity
QVQLVESGGGLVQAGGSLRLSCAASGRIFDYAMGWYRQAPGKERELVAAISGSGGSTYYADSVKGRFTISRDNAKNTVYLQMNSLKPEDTAVYYCSTSGPQYYSRNFDYWGQGTQVTVSS	low polyreactivity
QVQLVESGGGLVQAGGSLRLSCAASGRIFDYNAMGWYRQAPGKERELVAAITSAGGTNYADSVKGRFTISRDNAKNTVYLQMNSLKPEDTAVYDCAADGSGYYDWYYYWGQGTQVTVSS	low polyreactivity
QVQLVESGGGLVQAGGSLRLSCAASGRIFDYYAMGWYRQAPGKERELVAAISSSVGNTYYADSVKGRFTISRDNAKNSVYLQINSLKQEDTAVYYCADYSYVRSSYEVEYDYWGQGTQVTVSS	low polyreactivity
QVQLVESGGGLVQAGGSLRLSCAASGRIFDYYAMGWYRQAPGKERELVASISRSGGSTYYADSVKGRFTISRDNAKNTVYLQMNSLKPDDSAVYYCAASRGYYYGRVGYWGQGTQVTVSS	high polyreactivity
QVQLVESGGGLVQAGGSLRLSCAASGRIFDYYAMGWYRQAPGKERELVATINFSDGSTYYADSVKGRFTISRDNAKNTVYLQMNSLKPEDTAGYYCAAAGWEPYDSLDMNYWGQGTQVTVSS	low polyreactivity
QVQLVESGGGLVQAGGSLRLSCAASGRIFEHYAMGWYRQAPGKERELVAAITVSVGSTYYADSVKGRFTISRDNAKNTVYLEMNSLKPEDTAVYYCAAGIHCRYARDWYEYWGQGTQVTVSS	low polyreactivity
QVQLVESGGGLVQAGGSLRLSCAASGRIFEINAMGWYRQAPGKERELVAGISYSGGSTYYADSVKGRFTISRDNAKNTVYLQMNSLKPEDTAVYYCAALFQSYQITYDSWGQGTQVTVSS	low polyreactivity
QVQLVESGGGLVQAGGSLRLSCAASGRIFELYAMGWYRQAPGKERELVADITTIGDSTYYADSVKGRFTISRDNAKNTVYLQMNSLKPEDTAVYYCAADPYVDSYDSWGQGTQVTVSS	low polyreactivity
QVQLVESGGGLVQAGGSLRLSCAASGRIFEYYAMGWYRQAPGKERELVAVISSGSSTNYADSVKGRFTISRDNAKNTVYLQMNSLKPEDTAVYYCAAEYSVYYRFSDGDYWGQGTQVTVSS	low polyreactivity
QVQLVESGGGLVQAGGSLRLSCAASGRIFFANAMGWYRQAPGKERELVAAISWRGGSTYYADSVKGRFTISRDNAKNTFYLQMNSLKPEDTAVYYCNAVTRGYYHEMEYWGQGTQVTVSS	high polyreactivity
QVQLVESGGGLVQAGGSLRLSCAASGRIFFANAMGWYRQAPGKEWELVGAISRGGRTNYADSVKGRFTISRDNAKNTVYLQMNSLKPEDTAVYYFAAVRLSHAPSYYLYGMAYWGHGTQVTVSS	low polyreactivity
QVQLVESGGGLVQAGGSLRLSCAASGRIFFAYAMGWYRQAPGKEREFVAAISDNDGSTYYADSVKGRFTISRDNAKNTVYLQMNSLKPEDTAVYYCNADLGYVYDYWGQGTQVTVSS	low polyreactivity
QVQLVESGGGLVQAGGSLRLSCAASGRIFFDYAMGSYRQAPGKEWVLVAAINRGGRTYYADSVKGRFTMSRDNAKNTVYLPMNTLKPEDTAVYYCPADGQTAKSNFAYWGQRTQVTVSS	low polyreactivity
QVQLVESGGGLVQAGGSLRLSCAASGRIFFFNAMGWYRQAPGKERELVARITRGGSTNYADSVKGRFTISRDNAKNTVYLQMNILKPEDTAVYYCARDGYATTNARYGYDYWGQGTQVTVSS	low polyreactivity
QVQLVESGGGLVQAGGSLRLSCAASGRIFFHYAMGWYRQAPGKERELVAVISSSGGITYYADSVKGRFTFSRDNAKNTVYLQMNSLKPEDTAVYYCNTVPRPFDRYGYWGQGTQVTVSS	low polyreactivity
QVQLVESGGGLVQAGGSLRLSCAASGRIFFLNTMGWYRQAPGKERELVAAITRGGSTYYADSVKGRFTISRDNAKNTVYLQMNSLKPEDTAVYYCAADVYGGIGYDYWGQGTQVTVSS	low polyreactivity
